Reference: US20150291685A1 (AstraZeneca / MedImmune, published 2015)
Where a chain is given by its changes, count along the chain named.

Experiments:
[1] = target: T1, S. aureus clumping factor protein ClfA (Staphylococcus aureus, UniProt Q2G015 221-559, limits assumed); experiment: inhibition of ClfA binding to immobilized fibrinogen; the curve reaches about 60-65 % inhibition [table]
T1 sequence (looked up): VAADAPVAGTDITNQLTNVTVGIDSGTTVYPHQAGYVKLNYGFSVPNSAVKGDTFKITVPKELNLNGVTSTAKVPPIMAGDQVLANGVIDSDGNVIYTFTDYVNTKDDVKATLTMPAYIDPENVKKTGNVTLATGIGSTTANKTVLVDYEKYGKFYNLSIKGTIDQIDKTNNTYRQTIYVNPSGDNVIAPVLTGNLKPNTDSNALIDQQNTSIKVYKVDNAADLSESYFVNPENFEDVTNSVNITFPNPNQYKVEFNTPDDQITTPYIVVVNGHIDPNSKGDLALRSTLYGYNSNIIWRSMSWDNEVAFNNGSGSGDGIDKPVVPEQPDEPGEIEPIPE

[2] = target: T1, S. aureus clumping factor protein ClfA; experiment: inhibition of ClfA binding to immobilized fibrinogen; the curve reaches about 55-62 % inhibition [table]
Neat-1 = target: T2, Neat-1 (Staphylococcus aureus); experiment: competition ELISA: haptoglobin (Hp) binding to Neat-1 of IsdH with rising antibody concentration
T2 construct: domain of IsdH; also called subunit Neat-1 on IsdH; NEAT1 motif of IsdH

Neat-2 subunit of IsdH [3] = target: T3, Neat-2 subunit of IsdH (Staphylococcus aureus, UniProt Q2FXJ2 345-471); experiment: hu_IgGFc capture assay, mean of three experiments
T3 construct: domain: Neat-2; also called subunit Neat-2
T3 sequence (looked up): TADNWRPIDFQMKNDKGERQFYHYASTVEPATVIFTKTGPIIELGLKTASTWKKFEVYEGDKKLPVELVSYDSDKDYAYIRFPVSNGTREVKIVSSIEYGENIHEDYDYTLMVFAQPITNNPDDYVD

[4] = target: T4, S. aureus Iron regulated surface determinant H (IsdH) (Staphylococcus aureus, UniProt Q2FXJ2 41-864, limits assumed); experiment: hu_IgGFc capture assay, mean of three experiments
T4 sequence (looked up): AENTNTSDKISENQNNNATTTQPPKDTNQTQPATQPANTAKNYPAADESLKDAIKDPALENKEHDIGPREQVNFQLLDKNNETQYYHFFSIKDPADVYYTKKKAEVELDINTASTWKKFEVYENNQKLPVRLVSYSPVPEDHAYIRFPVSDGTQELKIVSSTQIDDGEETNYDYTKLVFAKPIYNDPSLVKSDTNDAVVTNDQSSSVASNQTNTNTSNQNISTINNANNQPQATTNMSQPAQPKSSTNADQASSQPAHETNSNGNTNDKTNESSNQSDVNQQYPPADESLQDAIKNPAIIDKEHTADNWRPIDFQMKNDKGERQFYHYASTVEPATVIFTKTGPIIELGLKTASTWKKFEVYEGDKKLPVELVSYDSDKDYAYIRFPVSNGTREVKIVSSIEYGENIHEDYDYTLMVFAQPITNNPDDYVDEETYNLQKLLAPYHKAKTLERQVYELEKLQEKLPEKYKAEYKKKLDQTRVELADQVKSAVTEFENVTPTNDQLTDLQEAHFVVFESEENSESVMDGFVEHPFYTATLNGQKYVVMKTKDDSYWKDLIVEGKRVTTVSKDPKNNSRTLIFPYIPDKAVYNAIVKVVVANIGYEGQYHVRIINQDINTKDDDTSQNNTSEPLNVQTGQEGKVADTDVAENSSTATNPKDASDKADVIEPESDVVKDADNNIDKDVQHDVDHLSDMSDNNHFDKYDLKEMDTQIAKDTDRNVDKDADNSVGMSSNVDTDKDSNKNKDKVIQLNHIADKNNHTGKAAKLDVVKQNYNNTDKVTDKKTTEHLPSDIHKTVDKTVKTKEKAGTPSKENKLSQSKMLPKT

Neat-2 subunit of IsdH [5] = target: T3, Neat-2 subunit of IsdH; experiment: competition ELISA: haptoglobin (Hp) binding to Neat-2 of IsdH with rising antibody concentration

B1: mAb 23D6 (antibody, V domains shown)
VH: QVQLVESGGGVVQPGRSLRLSCAASVFTFSSYGMHWVRQAPGKGLEWVALIWFDGSNEYYADSVKGRFTISRDNSKNTLYLQMNSLRAEDTAVYYCARDRGGGYYYYGMDVWGQGTTVTVSS
VL: DIQMTQSPSSLSASVGDRVTITCRASQGIRNDLGWYQQKPGKAPKRLIYAASSLQSGVPSRFSGSGSGTEFTLTISSLQPEDFATYYCLQHNSYPYTFGQGTKLEIK
notes: also called anti-ClfA antibody 23D6
- IC50 [1]: 1.92 µg/mL

B2: anti-ClfA mAb 11H10 (antibody, V domains shown)
VH: EVQLLESGGGLVQPGGSLRLSCAASGFTFSSFAMSWVRQAPGKGLEWVSAISGSGGNTYYADSVKGRFTISRDNSKNTLYLQMNSLRAEDTAVYYCAKIAFDIWGQGTMVTVSS
VL: B1 VL with A50V, Y96F, Q100P, L104V, E105D
- IC50 [2]: 0.871 µg/mL

B3: mAb 1C1 (antibody, V domains shown)
VH: EVQLLESGGGLVQPGGSLRLSCAASGFTFSRYFMGWVRQAPGKGLEWVSSIYSSGGYTSYADSVKGRFTISRDNSKNTLYLQMNSLRAEDTAVYYCARRWRDGTFDYWGQGTLVTVSS
VL: DIQMTQSPSSLSASIGDRVTISCRASQSVREYLNWYQQKPGKAPKLLIFAASSLQSGVPSRFSGSGSGTDFTLTISSLQPEDFATYYCQQSYSTRFTFGPGTKVDIK
notes: also called antibody 1C1
- IC50 (read off the curve) (Neat-1): ~3 µg/mL

B4: mAb 2F4 (antibody, V domains shown)
VH: EVQLLESGGGLVQPGGSLRLSCAASGFTFSPYMMQWVRQAPGKGLEWVSSIWPSGGKTYYADSVKGRFTISRDNSKNTLYLQMNSLRAEDTAVYYCARVRRGGATDYWGQGTLVTVSS
VL: DIQMTQSPATLSVSPGERATLSCRASQSVSSNLGWYQQKPGQAPRLLIYGASTRATGIPTRFSGSGSGTEFTLTISSLQSEDFATYYCQQYQNWPLLTFGGGTKVEIK
notes: also called antibody 2F4; anti-IsdH mAb 2F4
- Kd (Neat-2 subunit of IsdH [3]): 2.57 nM
- Kd [4]: 3.66 nM
- IC50 (read off the curve) (Neat-2 subunit of IsdH [5]): ~1 µg/mL
